The target of series [1] is von Willebrand factor (VWF), purified plasma-derived, multimeric, native (UniProt P04275). The series is described as follows: cell-based or functional assay.
The target is the same in series [2]. Nature of the series: SPR (BIAcore), VWF injected under flow over immobilised T5-8CUB, equilibrium fit. For orientation: Surface plasmon resonance follows binding to a sensor surface in real time, without labels.
Series [3] has the same target.
The target is the same in series [4]. The series is described as follows: SPR (BIAcore) under laminar flow.
The target is the same in series [5]. Nature of the series: microtiter plate binding (ELISA format, anti-V5 detection), VWF immobilised, static. In general terms: ELISA stands for enzyme-linked immunosorbent assay.
Series [6] has the same target. The series is described as follows: SPR (BIAcore), VWF injected under flow over immobilised delCUB, equilibrium fit, no EDTA.
In series [7] the target is von Willebrand factor pre-denatured with 1.5 M guanidine-HCl at 37 C for two hours (UniProt P04275). Nature of the series: SPR (BIAcore), guanidine-HCl denatured VWF injected over immobilised delCUB, equilibrium fit.
For series [8], the target named is von Willebrand factor (VWF), purified plasma-derived, multimeric, native (UniProt P04275). Nature of the series: SPR (BIAcore), VWF injected under flow over immobilised delCUB, equilibrium fit, in the presence of 10 mM EDTA.
In series [9] the target is von Willebrand factor pre-denatured with 1.5 M guanidine-HCl at 37 C for two hours (UniProt P04275). The series is described as follows: SPR (BIAcore), guanidine-HCl denatured VWF injected over immobilised MDTCS, equilibrium fit.
Series [10] addresses von Willebrand factor (VWF), purified plasma-derived, multimeric, native (UniProt P04275). Nature of the series: microtiter binding assay, immobilised vWF.
Series [11] has as its target recombinant vWF expressed in BHK cells overexpressing PACE/furin (UniProt P04275). Nature of the series: cell-based or functional assay.
Series [12] deals with von Willebrand factor (VWF), purified plasma-derived, multimeric, native (UniProt P04275). The series is described as follows: SPR (BIAcore) under flow.
For series [13] the target is unchanged. The series is described as follows: SPR (BIAcore), VWF injected under flow over immobilised T2-8CUB, equilibrium fit.

The text below walks through data of patent US20100144634A1 (published 2010).

The molecule “ADAMTS13 TSP1 5-8 repeats plus CUB domains, N-terminal linker and Flag, C-terminal V5-His (from UniProt Q76LX8 884-1191; Q76LX8 1192-1427)” registered an inhibition of proteolytic cleavage of VWF by ADAMTS13 under vortex-induced shear stress, fragment at 150 nM in series [1] of 75%. Further, in [2], the Kd stood at 212 nM.

With “ADAMTS13 variant truncated after the 8th TSP-1 repeat (lacking the CUB domains), C-terminal V5-His”, the “cleavage of VWF under vortex-induced mechanic shear stress” value in series [3] was “A removal of the CUB domains (delCUB) or more (MDTCS) abrogates its ability to cleave VWF”.

“ADAMTS13 variant truncated after the 8th TSP-1 repeat (lacking the CUB domains), C-terminal V5-His (from UniProt Q76LX8 75-1191) (enzyme)”: the fold reduction in affinity against full-length ADAMTS13 in series [4] is 5 fold. The Kd in [5] was found to be 70 nM; in [6] it was 274 nM; in series [7], 242 nM; in series [8], 468 nM.

As for “ADAMTS13 variant truncated after the spacer domain, C-terminal V5-His”, the “cleavage of VWF under vortex-induced mechanic shear stress” value in [3] is reported as “A removal of the CUB domains (delCUB) or more (MDTCS) abrogates its ability to cleave VWF”.

On to “ADAMTS13 variant truncated after the spacer domain, C-terminal V5-His (from UniProt Q76LX8 75-685) (enzyme)”, for which the Kd in series [5] was determined as 56 nM; in series [9] it was 337 nM.

On to “B-domainless derivative of human factor VIII, FVIII-SQ (from UniProt P00451 20-762; P00451 1657-1667; P00451 1668-2351)”, for which, in [1], the half-maximal effect on vWF proteolysis by ADAMTS13 was determined as 2.5 nM and the increase in vWF proteolysis by ADAMTS13 under shear stress amounted to 10 fold.

Consider “isolated light chain of FVIII (from UniProt P00451 1668-2351)”, for which, in series [1], the concentration of FVIII-LC achieving the half maximal rate enhancing effect (IC50) was 2 nM and the increase of the maximal proteolytic cleavage product (˜350 kDa) with 5 nM FVIII-LC fell in the range of 7 to 8 fold. Further, in series [10], the Kd was determined as 17 nM.

Consider “recombinant human full-length coagulation factor VIII (from UniProt P00451 20-1667; P00451 1668-2351)”, for which, in series [11], the half-maximal effect of FVIII on cleavage of rvWF by ADAMTS13 stood at 3 nM and the increase in product formation with rvWF as substrate in the presence of 20 nM FVIII came out at 10 fold. Moreover, in series [1], the Km of the enhancement of VWF cleavage by ADAMTS13 fell in the range of 2 to 3 nM, the concentration of FVIII required for half maximal enhancement in product formation came out at 3 nM, the enhancement of ADAMTS13 cleavage of plasma vWF (350K product) in the presence of 10-20 nM FVIII was in the range of 10 to 12 fold and the half maximal effect of rFVIII on proteolytic cleavage of VWF by ADAMTS13 is 2.9 nM.

B1: ADAMTS13 TSP1 2-8 repeats plus CUB domains, N-terminal linker and Flag, C-terminal V5-His (protein, not shown: small tags and cut ends)
chain: AAQPARRARRTKLALDTKDDDDKHVWTPVAWVWAAVRGPCSVSCGAGLRWVNYSCLDQARKELVETVQCQGSQQPPAWPEACVLEPCPPYWAVGDFGPCSASCGGGLRERPVRCVEAQGSLLKTLPPARCRAGAQQPAVALETCNPQPCPARWEVSEPSSCTSAGGAGLALENETCVPGADGLEAPVTEGPGSVDEKLPAPEPCVGMSCPPGWGHLDATSAGEKAPSPWGSIRTGAQAAHVWTPAAGSCSVSCGRGLMELRFLCMDSALRVPVQEELCGLASKPGSRREVCQAVPCPARWQYKLAACSVSCGRGVVRRILYCARAHGEDDGEEILLDTQCQGLPRPEPQEACSLEPCPPRWKVMSLGPCSASCGLGTARRSVACVQLDQGQDVEVDEAACAALVRPEASVPCLIADCTYRWHVGTWMECSVSCGDGIQRRRDTCLGPQAQAPVPADFCQHLPKPVTVRGCWAGPCVGQGTPSLVPHEEAAAPGRTTATPAGASLEWSQARGLLFSPAPQPRRLLPGPQENSVQSSACGRQHLEPTGTIDMRGPGQADCAVAIGRPLGEVVTLRVLESSLNCSAGDMLLLWGRLTWRKMCRKLLDMTFSSKTNTLVVRQRCGRPGGGVLLRYGSQLAPETFYRECDMQLFGPWGEIVSPSLSPATSNAGGCRLFINVAPHARIAIHALATNMGAGTEGANASYILIRDTHSLRTTAFHGQQVLYWESESSQAEMEFSEGFLKAQASLRGQYWTLQSWVPEMQDPQSWKGKEGT
Turning to B1, the inhibition of proteolytic cleavage of VWF by ADAMTS13 under vortex-induced shear stress, fragment at 150 nM in series [1] was found to be 100%. Also, the fold increase in affinity against T5-8CUB in series [12] was 1.5 fold. The molecule further gave a Kd in series [13] of 140 nM.

As a reminder, the Kd is the constant that tells how readily two partners part at equilibrium.
